Reference: patent US20250188479A1

Substrate: CC(C)=CCC/C(C)=C/COP(=O)(O)OP(=O)(O)O
Assay: purified protein, by the assay type
Conditions: other: purified wildtype RhNUDX1, this study; pH 8.0

B1: Rosa hybrida (Rosa hybrid cultivar) RhNUDX1, GPP phosphohydrolase, wildtype, UniProt JQ820249, SEQ ID NO: 14 (Rosa hybrid cultivar) (protein)
chain: MGNETVVVAETAGSIKVAVVVCLLRGQNVLLGRRRSSLGDSTFSLPSGHLEFGESFEECAARELKEETDLDIGKIELLTVTNNLFLDEAKPSQYVAVFMRAVLADPRQEPQNIEPEFCDGWGWYEWDNLPKPLFWPLDNVVQDGFNPFPT
- Km: 46.4 ± 4.4 µM
- kcat: 0.36 s⁻¹
- kcat/Km: 7747 ± 1736 M⁻¹ s⁻¹
